The target in the data set is PSMA (prostate-specific membrane antigen) (UniProt Q04609). The data set is described as follows: SPR. Particulars: 2'-fluoro modified ('2F-modified', positions not stated); 3' spacer-NH2 coupled to DSPE-PEG-NHS nanoparticle; OpenSPR, carboxyl chip with amine coupling, running buffer PBS pH 7.4, 20 uL/min; temperature not stated.
Chain of UniProt Q04609 (Q04609 44-750): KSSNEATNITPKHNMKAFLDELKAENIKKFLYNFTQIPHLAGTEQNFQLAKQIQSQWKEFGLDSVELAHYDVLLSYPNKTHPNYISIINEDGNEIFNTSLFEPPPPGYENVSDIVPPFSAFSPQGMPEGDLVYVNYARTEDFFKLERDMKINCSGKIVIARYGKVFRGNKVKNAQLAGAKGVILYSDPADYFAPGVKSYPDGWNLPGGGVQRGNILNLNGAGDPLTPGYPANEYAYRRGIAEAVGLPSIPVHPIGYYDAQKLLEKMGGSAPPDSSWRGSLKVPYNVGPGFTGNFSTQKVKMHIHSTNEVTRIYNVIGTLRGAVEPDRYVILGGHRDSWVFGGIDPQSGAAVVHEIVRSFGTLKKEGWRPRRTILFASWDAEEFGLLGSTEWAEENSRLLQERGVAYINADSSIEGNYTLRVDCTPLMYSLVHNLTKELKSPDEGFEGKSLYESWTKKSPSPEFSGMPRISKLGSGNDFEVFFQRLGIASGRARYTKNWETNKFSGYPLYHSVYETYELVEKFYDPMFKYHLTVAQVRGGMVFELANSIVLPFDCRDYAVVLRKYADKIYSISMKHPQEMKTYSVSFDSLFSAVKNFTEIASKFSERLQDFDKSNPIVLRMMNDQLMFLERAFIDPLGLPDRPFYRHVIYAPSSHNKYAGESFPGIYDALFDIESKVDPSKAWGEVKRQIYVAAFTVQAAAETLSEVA

Regarding GGGAGGACGAUGCGGAUCAGCCAUGUUUACGUCACUCCU, the Kd was determined as 602 nM.

The values above are taken from paper PMC7563377.
